Results on one protein are retold here after patent publication US20080299544.

B1: NS3/4a PI (protein)
chain: MAPITAYAQQTRGLLGCIITSLTGRDKNQVEGEVQIVSTAAQTFLATCINGVCWTVYHGAGTRTIASPKGPVIQMYTNVDQDLVGWPAPQGSRSLTPCTCGSSDLYLVTRHADVIPVRRRGDSRGSLLSPRPISYLKGSSGGPLLCPAGHAVGIFRAAVCTRGVAKAVDFIPVENLETTMRSPVFTDNSSPPVVPQSFQVAHLHAPTGSGKSTKVPAAYAAQGYKVLVLNPSVAATLGFGAYMSKAHGIDPNIRTGVRTITTGSPITYSTYGKFLADGGCSGGAYDIIICDECHSTDATSILGIGTVLDQAETAGARLVVLATATPPGSVTVPHPNIEEVALSTTGEIPFYGKAIPLEVIKGGRHLIFCHSKKKCDELAAKLVALGINAVAYYRGLDVSVIPPIGDVVVVATDALMTGYTGDFDSVIDCNTCVTQTVDFSLDPTFTIETITLPQDAVSRTQRRGRTGRGKPGIYRFVAPGERPSGMFDSSVLCECYDAGCAWYELTPAETTVRLRAYMNTPGLPVCQDHLEFWEGVFTGLTHIDAHFLSQTKQSGENLPYLVAYQATVCARAQAPPPSWDQMWKCLIRLKPTLHGPTPLLYRLGAVQNEITLTHPVTKYIMTCMSADLEVVTSTWVLVGGVLAALAAYCLSTGCVVIVGRVVLSGKPAIIPDREVLYREFDEMEEC
For the protein B1, the “proteolytic cleavage (SDS-PAGE and anti-hSOD Western blot after 30 minutes at room temperature)” value is “the NS3/4a cleaved MEFA 7.1 (lane 5, FIGS. 14A and 14B)” in the series with MEFA 7.1; “MEFA 7.2, on the other hand, showed no degradation (lane 6, FIGS. 14A and 14B)” with MEFA 7.2.
